Test [1] concerns the target T1, SARS-CoV-2 RBD protein (321–591) (SARS-CoV-2, Wuhan-Hu-1 (MN908947), UniProt P0DTC2). The test can be described thus: cell-based or functional assay.
The target in test [2] is T1, SARS-CoV-2 RBD protein (321–591). Description: SPR. The note with it: both partners purified.

As a reminder, the Kd is a measure of binding affinity in units of concentration. Low values mean a tighter complex, high ones a looser complex.

B1: S309H-XG81L (antibody, V domains shown)
VH: not shown
VL: DIQMTQSPSSLSASVGDRVTITCRASQSISSSLNWYQQKPGKAPKLLIYAASNLQSGVPSRFSGSGSGTDFTLTISSLQPEDFATYYCQQSFSTLFTFGPGTKVDLK
notes: also called rAb S309H-XG81L
For B1, the “IC50 of neutralisation of authentic SARS-CoV-2 on Vero E6 cells (CPE assay)” value in test [1] is 1.25 µg/mL. In test [2], this molecule had a dissociation constant Kd of 21.1 nM.
